The target in test [1] is T1, huNABA-avi-his (hybrid protein N-A1-B3-A2: N and A1 domains of human BGP, B3 domain of human CEA, A2 domain … (human, biotinylated at the avi tag (in vivo, co-transfected biotin ligase))).
T1 construct: also called NABA-avi-his reagent; biotinylated NABA
T1 chain: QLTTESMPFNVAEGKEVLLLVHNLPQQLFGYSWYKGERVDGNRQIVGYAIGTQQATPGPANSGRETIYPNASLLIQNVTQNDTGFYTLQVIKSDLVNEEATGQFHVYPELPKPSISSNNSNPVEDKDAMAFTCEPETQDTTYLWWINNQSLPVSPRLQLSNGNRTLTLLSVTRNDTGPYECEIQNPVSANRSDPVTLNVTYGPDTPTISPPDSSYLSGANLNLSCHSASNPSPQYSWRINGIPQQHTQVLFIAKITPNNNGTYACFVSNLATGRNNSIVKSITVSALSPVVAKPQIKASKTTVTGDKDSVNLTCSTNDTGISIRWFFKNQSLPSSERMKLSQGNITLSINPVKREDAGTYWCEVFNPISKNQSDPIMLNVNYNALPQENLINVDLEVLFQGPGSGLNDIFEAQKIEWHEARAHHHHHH
The test can be described thus: Biacore, Fab on immobilized NABA-avi-his; column Monovalent Affinity.

The target of test [2] is T1, huNABA-avi-his (hybrid protein …). As to the kind of experiment: Biacore SPR, Fab; antigen not named on the sheet, NABA-avi-his per paragraph 230.
For test [3] the target is unchanged. The test can be described thus: Biacore, column Affinity, CDR-H1 and CDR-H2 rows; antigen not named on the sheet, NABA-avi-his per paragraph 230.
The target is the same in test [4]. As to the kind of experiment: Biacore, column Affinity, CDR-L1 and CDR-L2 rows (QNVGTN and PLI-YSASYRYS); antigen not named on the sheet, NABA-avi-his per paragraph 230.
Test [5] deals with T2, human carcinoembryonic antigen (CEA), membrane-bound on cells (human, UniProt P06731 35-685).
T2 construct: whole, on cells; also called CEACAM-5; CD66e
T2 sequence (looked up): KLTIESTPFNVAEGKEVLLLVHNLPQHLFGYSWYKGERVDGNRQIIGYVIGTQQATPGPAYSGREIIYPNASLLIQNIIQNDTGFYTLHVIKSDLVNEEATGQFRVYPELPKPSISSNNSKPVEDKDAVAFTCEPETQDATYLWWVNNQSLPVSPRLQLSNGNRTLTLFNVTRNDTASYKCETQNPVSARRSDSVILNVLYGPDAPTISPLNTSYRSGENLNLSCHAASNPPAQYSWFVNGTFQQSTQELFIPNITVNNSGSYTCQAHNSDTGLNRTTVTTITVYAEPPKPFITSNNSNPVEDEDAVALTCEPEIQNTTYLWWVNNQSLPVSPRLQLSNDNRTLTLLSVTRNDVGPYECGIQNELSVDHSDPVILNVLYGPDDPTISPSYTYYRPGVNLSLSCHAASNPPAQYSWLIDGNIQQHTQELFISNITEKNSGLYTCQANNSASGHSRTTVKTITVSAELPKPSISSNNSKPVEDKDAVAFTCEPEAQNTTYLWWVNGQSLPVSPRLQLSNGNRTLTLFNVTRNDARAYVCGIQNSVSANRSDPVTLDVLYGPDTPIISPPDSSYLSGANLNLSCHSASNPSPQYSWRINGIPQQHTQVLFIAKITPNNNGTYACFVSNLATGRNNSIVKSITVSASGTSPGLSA
The test can be described thus: FACS on MKN-45 cells. How it is done:
CH1A1 includes the M69F/T71L double point mutation. The latter three variants have the entire frameworks 1, 2, or 3, respectively, replaced by the murine counterpart. […] In this assay, cell binding of the CH1A-based antibody variants to CEA-expressing MKN-45 cells was analyzed at various concentrations. The affinity-matured light chain 2F1 was identical for all antibodies tested except for the parental antibody where the original light chain CL1A was used. Mean fluorescence was determined by FACS analysis. […] The DLS assay was performed using 1 mg/ml of the antibodies in a buffer of 20 mM Histidine and 140 mM NaCl at pH 6.0. The assay was conducted starting at 25° C. with an incremental temperature increase of 0.05° C./min up to 70° C. All antibodies tested in this assay had 2F1 as the light chain

B1: anti-CEA Fab with affinity matured heavy chain CH7A H4E9 and unmatured light chain CL1A (Fab, V domains shown)
VH: QVQLVQSGSELKKPGASVKVSCKASGYTFTEFGMNWVRQAPGQGLEWMGWINTKTGEATYIEEFKGRFVFSLDTSVSTAYLQISSLKAEDTAVYYCARWDFYDYVEAMDYWGQGTTVTVSS
VL: DIQMTQSPSSLSASVGDRVTITCKASQNVGTNVAWYQQKPGKAPKLLIYSASYRYSGVPSRFSGSGSGTDFTLTISSLQPEDFATYYCHQYYTYPLFTFGQGTKLEIK
notes: Fab format, bacterially expressed; also called CH7A H4E9 + CL1A
Consider B1, for which the Kd in test [1] is 402 nM; in test [2], 518 nM; in test [3], 402 nM; in test [4] it was 402 nM. In test [1], this molecule returned a koff of 0.0021 s⁻¹. Further, the kon in test [1] was 5220 M⁻¹ s⁻¹.

B2: anti-CEA antibody with heavy chain CH1A4 and light chain 2F1 (antibody, V domains shown)
VH: QVQLVQSGAEVKKPGASVKVSCKASGYTFTEFGMNWVRQAPGQGLEWMGWINTKTGEATYVEEFKGRFAFSLETSATTAYLQINNLKNEDTAKYFCARWDFYDYVEAMDYWGQGTTVTVSS
VL: DIQMTQSPSSLSASVGDRVTITCKASAAVGTYVAWYQQKPGKAPKLLIYSASYRKRGVPSRFSGSGSGTDFTLTISSLQPEDFATYYCHQYYTYPLFTFGQGTKLEIKR
Turning to B2, in test [5], the “EC50 (read off the curve)” value is approximately 0.8 µg/mL.

The values above are taken from patent publication US20230365711A1 (Hoffmann-La Roche, published 2023).
